From paper PMC8405992 (2021)
Values belong to the binder of their own block, whether it stands above or below them.

Key:
Experiment in all cases: NMR titration
[1] = target: T1, Dsk2-UBL 2-77 (Saccharomyces cerevisiae, UniProt P48510)
T1 chain: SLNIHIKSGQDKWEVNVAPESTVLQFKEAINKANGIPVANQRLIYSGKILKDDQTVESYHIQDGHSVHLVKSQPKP

[2] = target: T2, Ubp6-UBL 2-81 (Saccharomyces cerevisiae, UniProt P43593)
T2 chain: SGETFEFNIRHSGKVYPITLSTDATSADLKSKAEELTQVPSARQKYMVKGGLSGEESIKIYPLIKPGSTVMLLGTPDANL

[3] = target: K11-linked diubiquitin (Homo sapiens, UniProt P0CG48)
[4] = target: K48-linked diubiquitin (Homo sapiens, UniProt P0CG48)

Kd [1]: 48 µM
Kd [2]: 104 µM
B1: Rpn1 214-355 (protein)
chain: HNGEEDAVDLLLEIESIDKLPQFVDENTFQRVCQYMVACVPLLPPPEDVAFLKTAYSIYLSQNELTDAIALAVRLGEEDMIRSVFDATSDPVMHKQLAYILAAQKTSFEYEGVQDIIGNGKLSEHFLYLAKELNLTGPKVPE

Kd [3]: 44 µM
B2: Rpn1 214-355 (protein)
chain: HNGEEDAVDLLLEIESIDKLPQFVDENTFQRVCQYMVACVPLLPPPEDVAFLKTAYSIYLSQNELTDAIALAVRLGEEDMIRSVFDATSDPVMHKQLAYILAAQKTSFEYEGVQDIIGNGKLSEHFLYLAKELNLTGPKVPE
modifications: K11-linked Ub2, distal Ub 15N-enriched

Kd [4]: 288 µM
B3: Rpn1 214-355 (protein)
chain: HNGEEDAVDLLLEIESIDKLPQFVDENTFQRVCQYMVACVPLLPPPEDVAFLKTAYSIYLSQNELTDAIALAVRLGEEDMIRSVFDATSDPVMHKQLAYILAAQKTSFEYEGVQDIIGNGKLSEHFLYLAKELNLTGPKVPE
modifications: K48-linked Ub2, distal Ub 15N-enriched

Kd [3]: 42 µM
B4: Rpn1 214-324 (protein)
chain: HNGEEDAVDLLLEIESIDKLPQFVDENTFQRVCQYMVACVPLLPPPEDVAFLKTAYSIYLSQNELTDAIALAVRLGEEDMIRSVFDATSDPVMHKQLAYILAAQKTSFEYE
modifications: K11-linked Ub2, distal Ub 15N-enriched
